Data set [1] addresses T1, FLI1 DBD 259-399 WT (UniProt Q01543 259-399).
T1 sequence: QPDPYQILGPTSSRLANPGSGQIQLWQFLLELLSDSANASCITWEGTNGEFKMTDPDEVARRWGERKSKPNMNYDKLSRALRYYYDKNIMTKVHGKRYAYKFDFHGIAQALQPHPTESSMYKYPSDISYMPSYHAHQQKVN
The data set can be described thus: X-ray crystallography.

The target in data set [2] is T2, FLI1 F362A 259-399 (UniProt Q01543 259-399, F362A).
T2 sequence: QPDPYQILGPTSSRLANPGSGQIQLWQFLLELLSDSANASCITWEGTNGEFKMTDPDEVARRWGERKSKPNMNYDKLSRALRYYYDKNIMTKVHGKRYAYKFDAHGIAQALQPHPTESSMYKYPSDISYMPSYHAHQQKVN
The data set can be described thus: X-ray crystallography.

Data set [3] deals with T2, FLI1 F362A 259-399. The data set is described as follows: fluorescence anisotropy.
Data set [4] addresses T3, FLI1 F362A 259-375 (UniProt Q01543 259-375, F362A).
T3 sequence: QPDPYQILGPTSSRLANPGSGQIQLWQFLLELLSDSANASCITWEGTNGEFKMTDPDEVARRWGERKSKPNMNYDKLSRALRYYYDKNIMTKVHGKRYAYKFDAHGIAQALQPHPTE
The data set is described as follows: fluorescence anisotropy. For orientation: Fluorescence polarisation rises when a labelled molecule tumbles more slowly, as on binding a larger partner.

Data set [5] addresses T4, FLI1 F362A 259-371 (UniProt Q01543 259-371, F362A).
T4 sequence: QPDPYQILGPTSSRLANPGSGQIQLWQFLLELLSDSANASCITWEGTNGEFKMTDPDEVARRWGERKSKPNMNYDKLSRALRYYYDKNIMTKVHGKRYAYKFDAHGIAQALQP
The data set can be described thus: fluorescence anisotropy.

For data set [6], the target named is T5, FLI1 F362A 276-399 (UniProt Q01543 276-399, F362A).
T5 sequence: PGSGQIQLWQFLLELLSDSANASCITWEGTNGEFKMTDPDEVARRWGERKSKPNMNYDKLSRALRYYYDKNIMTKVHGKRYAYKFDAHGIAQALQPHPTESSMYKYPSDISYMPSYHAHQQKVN
The data set can be described thus: fluorescence anisotropy.

The target of data set [7] is T6, FLI1 F362A 276-375 (UniProt Q01543 276-375, F362A).
T6 sequence: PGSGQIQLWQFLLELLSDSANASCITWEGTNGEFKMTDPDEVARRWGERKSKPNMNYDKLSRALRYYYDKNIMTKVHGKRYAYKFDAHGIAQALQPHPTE
The data set can be described thus: fluorescence anisotropy.

Data set [8] addresses T7, FLI1 276-375 N329E/D333G (UniProt Q01543 276-375, N329E;D333G;F362A).
T7 sequence: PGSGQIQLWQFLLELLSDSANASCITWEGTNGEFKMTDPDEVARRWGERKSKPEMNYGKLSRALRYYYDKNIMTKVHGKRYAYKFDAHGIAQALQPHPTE
The data set is described as follows: fluorescence anisotropy.

For data set [9], the target named is T8, FLI1 276-375 N329E (UniProt Q01543 276-375, N329E;F362A).
T8 sequence: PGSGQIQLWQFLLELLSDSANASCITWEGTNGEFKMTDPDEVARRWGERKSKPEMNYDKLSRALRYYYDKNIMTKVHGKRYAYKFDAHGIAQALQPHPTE
The data set can be described thus: fluorescence anisotropy.

For data set [10], the target named is T9, FLI1 276-375 D333G (UniProt Q01543 276-375, D333G;F362A).
T9 sequence: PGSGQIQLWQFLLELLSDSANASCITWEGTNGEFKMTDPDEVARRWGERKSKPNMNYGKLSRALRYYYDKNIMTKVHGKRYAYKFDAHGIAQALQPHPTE
The data set can be described thus: fluorescence anisotropy.

The target in data set [11] is T3, FLI1 F362A 259-375. The data set can be described thus: X-ray crystallography.
Data set [12] addresses T10, FLI1 276-371 (UniProt Q01543 276-371).
T10 sequence: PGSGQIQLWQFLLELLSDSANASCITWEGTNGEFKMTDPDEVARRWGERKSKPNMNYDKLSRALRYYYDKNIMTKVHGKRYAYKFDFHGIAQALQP
The data set is described as follows: fluorescence anisotropy.

The target in data set [13] is T3, FLI1 F362A 259-375. The data set is described as follows: fluorescence anisotropy. This is another data set of the same source.
Data set [14] has as its target T7, FLI1 276-375 N329E/D333G. The data set can be described thus: fluorescence anisotropy. This is another data set of the same source.
Data set [15] concerns the target T4, FLI1 F362A 259-371. The data set can be described thus: fluorescence anisotropy. This is another data set of the same source.
Data set [16] deals with T5, FLI1 F362A 276-399. The data set is described as follows: fluorescence anisotropy. This is another data set of the same source.
Data set [17] has as its target T8, FLI1 276-375 N329E. The data set can be described thus: fluorescence anisotropy. This is another data set of the same source.
Data set [18] addresses T6, FLI1 F362A 276-375. The data set can be described thus: fluorescence anisotropy. This is another data set of the same source.
Data set [19] concerns the target T2, FLI1 F362A 259-399. The data set can be described thus: X-ray crystallography. The source holds these as a separate data set.
Data set [20] deals with T10, FLI1 276-371. The data set is described as follows: EMSA. In general terms: A gel shift assay detects complexes by their altered migration in electrophoresis.
Data set [21] has as its target T6, FLI1 F362A 276-375. The data set can be described thus: EMSA.
The target of data set [22] is T2, FLI1 F362A 259-399. The data set can be described thus: EMSA.
In data set [23] the target is T5, FLI1 F362A 276-399. The data set is described as follows: EMSA.

By Kd is commonly meant the concentration at which binding is half-saturated. A low value points to higher affinity.

B1: 2sites (dsDNA)
DNA 1: GACCGGAAGGAAGTG
DNA 2: CACTTCCTTCCGGTC
B1: the binding result in data set [1] and in data set [2] was “binds” in each case.

B2: 2site_weak-weak (w-w) (dsDNA)
DNA 1: CAGAAAGGAAGGAAGTG
DNA 2: CACTTCCTTCCTTTCTG
For the molecule B2, the binding signal in [3] was 41 ± 21 cooperativity factor w; in data set [4] it was 103 ± 26 cooperativity factor w; in data set [5], 22 ± 7 cooperativity factor w; in [6] it was 16 ± 10 cooperativity factor w; in data set [7] it was 33 ± 20 cooperativity factor w; in [8], about 1 cooperativity factor w. The values for the binding signal in data set [9] and in [10] were 6 ± 6 cooperativity factor w and about 1 cooperativity factor w, respectively.

B3: 3sites (dsDNA)
DNA 1: GACCGGAAGGAAGGAAGTG
DNA 2: CACTTCCTTCCTTCCGGTC
On to B3, for which the binding result in data set [11] is “binds”.

B4: 1site_weak (dsDNA)
DNA 1: TTGAAGGAAGAG
DNA 2: CTCTTCCTTCAA
Take B4: the Kd in data set [12] came to 402 ± 172 nM; in data set [13], 544 ± 288 nM; in data set [14], 126 ± 14 nM; in data set [15] it was 1010 ± 421 nM; in [16], 146 ± 37 nM; in [17], 275 ± 39 nM. This molecule gave a Kd in data set [18] of 137 ± 34 nM.

B5: 4sites (dsDNA)
DNA 1: GACCGGAAGGAAGGAAGGAAGTGCG
DNA 2: CGCACTTCCTTCCTTCCTTCCGGTC
With B5, in data set [19], the binding result was “binds”.

B6: 2site_strong-weak (s-w) (dsDNA)
DNA 1: CAGACCGGAAGGAAGTG
DNA 2: CACTTCCTTCCGGTCTG
Regarding B6, the binding result in [20], in data set [21], in [22] and in data set [23] was “binds” in each case.

Values taken from article PMC11934925.
